{"source": "patent US11434267B2", "about": "“Peptides having reduced toxicity that stimulate cholesterol efflux” (The Regents of the University of California, priority 2013, dated 2022)", "key": {"ABCG1": {"target": "T1, ABCG1 (Homo sapiens, UniProt P45844)", "T1 construct": "expressed in transfected cells; host or cells: BHK cells, stably transfected", "experiment": "ABCG1 mediated cholesterol efflux from BHK cells stably transfected with ABCG1", "format": "cell-based", "settings": "BHK-ABCG1 vs mock, 50 μg peptide/ml, time-course and 4 h", "from_the_text": "To further evaluate potential anti-atherogenic mechanisms of CS6253, BHK cells stably transfected with ABCG1 and mock-transfected control cells were labeled with [3H]cholesterol and used in efflux experiments. […] Panel A—Time-course for ABCG1 mediated cholesterol efflux from cells to lipid-free CS6253 peptide or CS6253:POPC complexes. […] Panel B—Comparison between CS6253 and ATI-5261 in mediating cellular cholesterol efflux via ABCG1. [3H]cholesterol labeled BHK cells (ABCG1 vs. mock transfected; left bars, control BHK, right bars, G1-BHK) were incubated with either lipid-free peptide or peptides formulated with POPC."}, "Wistar rats": {"test_system": "Wistar rats", "experiment": "High-dose IV toxicity of ATI-5261 in rats (plasma ALT, AST, TG, cholesterol)", "format": "in vivo, rat", "experimental": "Peptides or peptidomeimetics of the invention can be evaluated for toxicity using known assays. Examples of such assays are illustrated in the Examples section. Toxicity is typically assayed in a rat, rabbit, mouse, monkey or dog model. In an illustrative assay such as that described in Example 1, a peptide is administered intravenously using a rabbit or rat model at doses of 3, 30, and 300 mg/kg and vehicle alone is also administered at 48 hour intervals for a total of four injections. Safety chemistry panels including plasma alanine aminotransferase (ALT), aspartate amino transferase (AST), and creatine kinase (CK) can then be determined in the blood. The presence of elevated levels of these enzymes in the blood compared to control normal values is indicative of toxicity. A peptide of the invention is typically considered to be non-toxic or to have little toxicity, when the results using the highest dose, 300 mg/kg in this illustrative assay, are equivalent (fall within the standard deviation) of the values measured for the control animals that received vehicle alone, or are no more than 2 or 3 times background obtained with vehicle alone. In some embodiments, a toxicity assay is performed where the toxicity of a peptide of the invention is compared to that to ATI-5261. […]\nCytotoxicity of an HDL mimetic peptide ATI-5261 at high doses was evaluated in rats and rabbits (FIG. 1). […]"}, "cynomolgus monkeys": {"test_system": "cynomolgus monkeys", "experiment": "IV infusion toxicity of ATI-5261 in monkeys", "format": "in vivo, cynomolgus monkey", "experimental": "Male (upper panel) and female (lower panel) cynomolgus monkeys were administered ATI-5261 at a fixed dose of 100 mg/kg by IV infusion (60 min) every 96 hours for a total of 4 injections. Blood was collected 24 h post infusion and levels of plasma ALT, AST, creatine kinase (CPK), and total and indirect bilirubin determined. Values are expressed as a fold-increase vs. pre-dose levels."}, "ABCA1": {"target": "T2, ABCA1 (Mus musculus, UniProt P41233)", "T2 construct": "treated (18 h) with a cAMP analog to induce ABCA1 protein expression; endogenous in cells; host or cells: J774 macrophages", "T2 sequence (P41233 whole entry)": "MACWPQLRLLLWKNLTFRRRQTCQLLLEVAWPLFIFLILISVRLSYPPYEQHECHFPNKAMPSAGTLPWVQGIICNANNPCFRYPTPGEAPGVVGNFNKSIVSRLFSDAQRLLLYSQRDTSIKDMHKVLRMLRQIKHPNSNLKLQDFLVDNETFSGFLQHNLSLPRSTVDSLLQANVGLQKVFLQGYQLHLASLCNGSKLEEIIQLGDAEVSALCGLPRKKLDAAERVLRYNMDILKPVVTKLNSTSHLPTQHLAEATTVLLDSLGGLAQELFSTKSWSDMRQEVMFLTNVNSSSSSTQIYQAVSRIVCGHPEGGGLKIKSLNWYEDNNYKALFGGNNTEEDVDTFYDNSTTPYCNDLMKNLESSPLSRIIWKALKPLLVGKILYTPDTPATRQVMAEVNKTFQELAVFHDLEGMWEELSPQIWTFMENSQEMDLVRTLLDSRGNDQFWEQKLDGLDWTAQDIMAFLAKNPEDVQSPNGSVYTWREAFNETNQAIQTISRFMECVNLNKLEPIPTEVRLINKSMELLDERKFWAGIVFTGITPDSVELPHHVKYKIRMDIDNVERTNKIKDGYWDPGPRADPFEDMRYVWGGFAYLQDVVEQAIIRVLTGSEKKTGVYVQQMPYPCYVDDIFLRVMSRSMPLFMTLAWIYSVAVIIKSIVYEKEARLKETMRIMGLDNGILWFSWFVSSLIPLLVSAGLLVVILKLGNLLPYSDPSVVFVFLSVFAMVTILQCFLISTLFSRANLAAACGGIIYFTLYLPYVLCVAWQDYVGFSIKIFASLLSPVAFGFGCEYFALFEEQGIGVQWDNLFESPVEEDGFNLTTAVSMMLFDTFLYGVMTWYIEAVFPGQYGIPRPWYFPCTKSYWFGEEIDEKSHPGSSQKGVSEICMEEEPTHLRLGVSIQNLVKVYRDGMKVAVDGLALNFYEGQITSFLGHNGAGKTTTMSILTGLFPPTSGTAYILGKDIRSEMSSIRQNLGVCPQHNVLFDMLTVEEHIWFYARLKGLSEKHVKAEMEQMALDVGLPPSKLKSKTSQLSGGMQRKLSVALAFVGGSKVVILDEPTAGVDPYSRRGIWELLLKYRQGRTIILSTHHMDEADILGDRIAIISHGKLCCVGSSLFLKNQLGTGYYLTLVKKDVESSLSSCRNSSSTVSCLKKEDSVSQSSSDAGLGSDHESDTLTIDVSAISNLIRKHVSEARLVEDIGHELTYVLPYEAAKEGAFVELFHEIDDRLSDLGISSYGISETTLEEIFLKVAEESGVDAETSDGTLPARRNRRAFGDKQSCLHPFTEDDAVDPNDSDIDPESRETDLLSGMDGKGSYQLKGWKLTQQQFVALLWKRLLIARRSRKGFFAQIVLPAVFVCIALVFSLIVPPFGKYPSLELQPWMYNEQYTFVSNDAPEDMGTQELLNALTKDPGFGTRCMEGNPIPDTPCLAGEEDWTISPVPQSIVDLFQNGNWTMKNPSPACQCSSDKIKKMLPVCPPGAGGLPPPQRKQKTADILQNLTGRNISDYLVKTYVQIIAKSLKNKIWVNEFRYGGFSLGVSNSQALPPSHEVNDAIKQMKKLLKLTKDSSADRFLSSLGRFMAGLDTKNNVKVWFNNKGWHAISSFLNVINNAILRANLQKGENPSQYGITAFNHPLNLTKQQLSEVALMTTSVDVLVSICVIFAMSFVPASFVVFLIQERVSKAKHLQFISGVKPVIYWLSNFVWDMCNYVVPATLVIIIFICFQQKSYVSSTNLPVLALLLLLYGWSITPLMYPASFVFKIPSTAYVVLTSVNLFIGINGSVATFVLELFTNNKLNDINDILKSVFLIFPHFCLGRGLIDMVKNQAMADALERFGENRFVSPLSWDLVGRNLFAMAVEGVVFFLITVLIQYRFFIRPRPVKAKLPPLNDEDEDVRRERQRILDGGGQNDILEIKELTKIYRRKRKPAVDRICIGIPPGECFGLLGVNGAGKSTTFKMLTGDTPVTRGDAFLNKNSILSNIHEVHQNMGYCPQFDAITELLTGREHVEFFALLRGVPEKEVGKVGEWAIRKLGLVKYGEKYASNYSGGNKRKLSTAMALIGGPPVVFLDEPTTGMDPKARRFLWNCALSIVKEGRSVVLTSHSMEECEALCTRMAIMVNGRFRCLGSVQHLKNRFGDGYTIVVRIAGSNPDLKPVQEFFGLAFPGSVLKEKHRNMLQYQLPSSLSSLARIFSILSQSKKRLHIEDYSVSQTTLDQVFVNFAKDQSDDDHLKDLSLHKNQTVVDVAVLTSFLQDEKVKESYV", "experiment": "ABCA1-dependent cholesterol efflux from [3H]cholesterol-labeled J774 macrophages with and without cAMP", "format": "cell-based", "settings": "cAMP treated J774, dose response, 4 h", "from_the_text": "Suitable cholesterol efflux assays are described in, e.g., Bielicki, J. K and Oda, M. N., Biochemistry, 41:2089-2096 (2002); Jia et al., Biochem. Biophys. Res. Common., 297:206-213 (2002). In some embodiments, a polypeptide known to mediate cholesterol efflux (e.g., helix 9/10 of Apo A-I) is used to screen for additional mediators of cholesterol efflux in a cell based assay. For example, cell lines in which cholesterol efflux can be enhanced using a cAMP analog that up-regulates ABCA1 protein expression (e.g., J774 macrophages) can conveniently be used to assess the ability of a polypeptide of the present invention to mediate cholesterol efflux. The cells are incubated with labeled cholesterol (e.g., [^3H]cholesterol) under conditions appropriate for cholesterol uptake by the cells. Thus, cAMP or cAMP analogs (e.g., CPT-cAMP) are incubated with the cells for a suitable time before the initiation of cellular cholesterol efflux, i.e., prior to contacting the cells with a test polypeptide. Measurement of labeled cholesterol appearing in the medium is used to determine the cholesterol efflux mediating activity of the test polypeptide.\nAliphatic analogs of ATI-5261 lacking phenylalanine residues retained potent ABCA1 selective cholesterol efflux activity (FIG. 7). J774 macrophages were labeled (48 h) with [^3H]cholesterol and treated (18 h) with a cAMP analog to induce ABCA1 protein expression; cells incubated in the absence of cAMP (left bars) served as controls. […] Peptides were used at a concentration of 30 μg/ml, which was maximal for promoting cholesterol efflux activity. Panel B—Dependence of cholesterol efflux on the concentration of peptides. […] Results are expressed as the difference in cholesterol efflux (%/4 h) observed using cAMP treated vs. non-treated J774 cells. Values are means±SD, n=3."}}, "data": [{"substance": "ATI-5261: HDL mimetic peptide, parent peptide with phenylalanine and arginine residues; toxic at high doses; used as positive control (EVRSKLEEWFAAFREFAEEFLARLKS)", "values": [{"measurement": "cholesterol efflux via ABCG1", "setting": "ABCG1", "value": "poorly active"}, {"measurement": "plasma triglycerides and unesterified cholesterol", "setting": "Wistar rats; IV", "value": "increased plasma triglycerides and cholesterol"}, {"measurement": "cytotoxic response (plasma ALT, AST)", "setting": "Wistar rats; IV 3, 30, 300 mg/kg at 48 h intervals, 4 injections", "value": "induced a cytotoxic response"}, {"measurement": "cytotoxic response (ALT, AST, CPK, bilirubin)", "setting": "cynomolgus monkeys; 100 mg/kg IV infusion (60 min) every 96 hours, 4 injections, 24 h post infusion", "value": "induced a cytotoxic response"}, {"measurement": "plasma creatine kinase, fold-increase vs. pre-dose", "setting": "cynomolgus monkeys; 100 mg/kg IV infusion, after the first infusion, male and female", "value": "marked increase"}, {"measurement": "peptide concentration at saturation of cholesterol efflux", "setting": "ABCA1", "value": "roughly 3 μg/ml"}]}]}
